This note sets out measurements from PMC8001920, “Selecting Subpopulations of High-Quality Protein Conformers among Conformational Mixtures of Recombinant Bovine MMP-9 Solubilized from Inclusion Bodies” (International Journal of Molecular Sciences, 2021).

The data set concerns the molecule itself. The data set is described as follows: SDS-PAGE and Western blot; IMAC peaks of solubilized MMP-9 from L. lactis, mixed 1:1 with Laemmli buffer, boiled at 90 °C for 10 min, run with 0.1% SDS, detected with anti-His-tag monoclonal antibody; bands of high molecular weight. For orientation: Immunoblotting shows a protein as a band on a membrane.

B1: recombinant bovine MMP-9 fragment (Phe107-Pro449), C-terminally His-tagged, produced in L. lactis (domain or fragment)
chain: not shown
notes: matrix metalloproteinase 9 (MMP-9), bovine, fragment Phe107-Pro449 of NCBI NM_174744.2; The same fragment was also made in Clearcoli BL21(DE3) (pETDuet); no result on self-association is told for that material; also called matrix metalloproteinase 9; solubilized MMP-9; not shown: 6His-tag, C-terminal, kept
B1: the binding result is listed as “binds”.
